Laboratory results: the nanobody polyreactivity screen of Harvey et al. (2022)

Assay: yeast display, Sf9 membrane polyspecificity reagent, FACS + sequencing; frameworks hold sequencing errors
In short: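 Nanobodies from a synthetic yeast display library (Saccharomyces cerevisiae BJ5465), induced 36–48 hours with galactose, were stained 1 hour at 4 °C with 10% biotinylated, detergent-solubilized Sf9 membrane reagent, enriched on streptavidin microbeads, then FACS-sorted. Anti-HA (expression) and streptavidin (reagent binding) fluorescence set low and high (top ~1%) gates. Polyreactivity labels come from the gate of origin. Genes were colony-PCR amplified, MiSeq 2 × 250 sequenced and filtered by CDR length.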

Q: For “QVQLVESGGGLVQAGGSLRLSCAASGSIFYRNAMGWYRQAPGKERELVAAISASGGSTYYADSVKGRFTISRDNAKNTVYLQMNSLKPEDTAVYYCAASRYYSRYDYWGQGTQVTVSS”, which “polyreactivity (PSR sort gate)” value is on record?
A: high polyreactivity

Q: Which “polyreactivity (PSR sort gate)” value does the source give for “QVQLVETGGGLVQAGGSLRLSCAASGIIFPFYAMGWYRQAPGKERELVAAITSDGNTNYADSVKGRFTISRDNAKNTVYLQMNSLKPEDTAVYYCNAETQYGVLSWHSTRHDYWGQGTQVTVSS” here?
A: low polyreactivity

Q: With “QVQLVESGGGLVQAGGSLRLSCGASGRTFISNAMGWYRQAPGKERELVATINSGGSTNYADSVKGRFTISRDNAKNTVYLQMNSLKPEDTAVYYCARRVRYKHYDYWGQGTQVTVSS” as the sequence, how does the “polyreactivity (PSR sort gate)” value read?
A: high polyreactivity

Q: For “QVQLVESGGGLVQAGGRLRLSCAASGFTFYRYAMGWYRQAPGKERELVAAITDSGDSTYYADSVKGRFTISRDNAKNTVYLQMNSVKPEDTAVYYCNTLVDLDGFEYYYWGQGTQVTVSS”, which “polyreactivity (PSR sort gate)” value is on record?
A: high polyreactivity

Q: With “QVQLVESGGGLVQAGGSLRLSCAASGFIFNSYAMGGYRQAPGKERELVAAISRRGSSTYYADSVKGRFTISRDNAKNTVYLQMKSLKPEDTAVYYCAKRDLSTSWYLRDYWGQGTQVTVSS” as the sequence, how does the “polyreactivity (PSR sort gate)” value read?
A: high polyreactivity

Q: For “QVQLVESGGGLVQAGGSLRLSCAASGLTFVYNTMGWYRQAPGKERELVAAINWSGGRTYYADSVKGRFTISRDNAKNTVYLQMNSLKPEDTAVYYCAALYVPNTPTYKYDYWGQGTQVTVSS”, which “polyreactivity (PSR sort gate)” value is on record?
A: low polyreactivity

Q: Which “polyreactivity (PSR sort gate)” value does the source give for “QVQLVESGGGLVQAGGSLRLSGAASGRIFGTYDMGWYRQAPGKERELVAAINRSAGSTYYADSVKGRITISRDNAKNTVYLQMNSLKPEDTAVYYCAKQPLLFQYLEYDYWGQGTQVTVSS” here?
A: low polyreactivity

Q: With “QVQLVESGGGLVQAGGSLRLSCAASGSIFRTNAIGWYRQAPGRERELVAAITGSGGSTYYADSVKGRFTISRDNAKNTVYLQMNSLKPEDTAVYYCAVVGYHRDFDYWGQGTQVTVSS” as the sequence, how does the “polyreactivity (PSR sort gate)” value read?
A: low polyreactivity

Q: For “QVQLVESGGGLVQAGGSLRLICASSGLNFVVYAMGRSRPAPGKERELVAAISSGGGSTYYADSVKGRFTISRDNAKNSVYLQMNSQKPEDTEVYYCNAVDKLYYWRYDYWRQGTQVTVSS”, which “polyreactivity (PSR sort gate)” value is on record?
A: low polyreactivity

Q: Which “polyreactivity (PSR sort gate)” value does the source give for “QDQLVESGGGLVQAGGSLRLICAASGRTFITYSMGWYRQAPGKERELVAAISWNGGTTYYADSVKGRFTISRDNAKNTVYIQMNSLKPEVTAVYYCAGYRWYSAARMGYWGQGTQVTVSS” here?
A: high polyreactivity

Q: With “QVQLVESGGGLVQAGGSLRLSCAASGSTFLYNTMGWYRQAPGKERELVATITSRGDRTYYADSVKGRFTISRDIPKNNVYLQMNSLKPEDTAVYYCNAYGGNYPQSYRYYYWGQGTQVTVSS” as the sequence, how does the “polyreactivity (PSR sort gate)” value read?
A: low polyreactivity

Q: With “QVQLVESGGGLVQAGGSLSLSCAASGSTFVINAMGWYRPAPRKERELLAAIRGRCVSTSYADSVKGRFTISRDIAKNTVYLQMNSLKPEDTEVYYCAADSRTGYYYWGQGTQVTVSS” as the sequence, how does the “polyreactivity (PSR sort gate)” value read?
A: high polyreactivity

Q: With “QVQLVESGGGLVQAGGSLRLSCAASGRIFYFYAMGWYRQAPGKERELVAGITRSGDSTYADSVKGRFTISRDNAKNTVYLQMNSLKPEDTAVYYCAADFPWSTKSCHPDSGDSWGQGTQVTVSS” as the sequence, how does the “polyreactivity (PSR sort gate)” value read?
A: low polyreactivity

Q: With “QVQLVESGGGLVQAGGSLRLSCAASGSTIVRYAMGWYRQAPGKERELVAAISGGGSTSYADSVKGRFTISRDNAKNTVYLQMNSLKPEDTAVYYCAKAGYRSEFEYWGQGTQVTVSS” as the sequence, how does the “polyreactivity (PSR sort gate)” value read?
A: low polyreactivity

Q: Which “polyreactivity (PSR sort gate)” value does the source give for “HDQLVESGGGLVEAGGSLRLSCAASGITFKGYAMGWYRPAPGKERELVAAITSGGSTKYADSVKGRFTSSRDNAKNTVYLQMNSLKPEDTAVYYCAAAVVNYGWWTYGYYGFGYWGQGTQVTVSS” here?
A: high polyreactivity

Q: Which “polyreactivity (PSR sort gate)” value does the source give for “QVQLVESGGGLVQAGGSLRLSCAASGIIFRSNAMGWYRQAPGKERELVAAISRTGRTYYADSVKGRFTISRDNAKNTVNLQMNSLKPEDTAVYYCAVGIVQRDSRYYYWGQGTQVTVSS” here?
A: high polyreactivity

Q: For “QVQLVESGGGLVQAGGSLRLSCAASGSTFPYYTMGWYRQAPGKERELVAAITWRGGRTYYADSVKGRFTISRDNAKNTVYLQMNSLKPEDTAVYYCAVYRRWYSGLYDYWGQGTQVTVSS”, which “polyreactivity (PSR sort gate)” value is on record?
A: high polyreactivity

Q: With “QVQLVESGGGLVQAGGSLRLSCAASGRIFGVNTMGWYRQEPGKEREMVAVIRESDGSTYYADSVKGRFTISRDNAKNTVYLQMNSLKPEDTAVYYCAKDWYRSPSTYEWNSQYGYWGQGTQVTVSS” as the sequence, how does the “polyreactivity (PSR sort gate)” value read?
A: low polyreactivity

Q: Which “polyreactivity (PSR sort gate)” value does the source give for “QVQLVESGGGLVQAGGSLRLSWAAYGRNFRPNTMGWYRQAPGKEREMVAAISRSGGSTYYADSVKARFTISRDNAKNTVYLQMNSLKPEDTAVYYCAKRYGGIVGVGAYKYEYWGQGTQVTVSS” here?
A: high polyreactivity

Q: Which “polyreactivity (PSR sort gate)” value does the source give for “QVQLVESGGGLVQAGGSLRLSCAASGSIFIGNTMGWYRQAPGKERELVATIRRSGSRTYYADSVKGRFTISRDNAKNTVYLQLNSLKPEDTAVYYCAADRLRSSGYKTIYDYWGQGTQVTVSS” here?
A: low polyreactivity

Q: Which “polyreactivity (PSR sort gate)” value does the source give for “QVQLVESGGGLVQAGGSLRLSCPASGSIFDFYAMGWYRQAPGKERELVAAIDDIDDSTYYADSVKGRFTISRDNAKNTVYLQMNSLKPEDTAVYDCAAELRPGYRSSYGLIYDYWGQGTQVTVSS” here?
A: low polyreactivity

Q: With “QVQHVESGGGLVQARGSLRLSCAASGLTFNTYAMGWYRQAPGQDRELVAAISRRGSRTYYADSVKGRFTISRDNAKNTVYLQMNSLNREDTAVYYCAAPRASGYYWGQGTQVTVSS” as the sequence, how does the “polyreactivity (PSR sort gate)” value read?
A: high polyreactivity

Q: Which “polyreactivity (PSR sort gate)” value does the source give for “QVQLVETGGGIVQAGGILRLSCAYSGSIFYLYAMGWYRQAPGKERELVAAISTSGGRTHYADSVKGRITISRDNAKNTVYLQMNSLKPEDTAVYYCAAPAARPDGGYGYWGQGTQVTVSS” here?
A: high polyreactivity

Q: For “QVQLVESGGGLVQAVGSLRLSCADSGRIFYGYDMGWYRQAPGKERELVAAITWRGGTFYADSVKGRFTISRDNEKKTVYLQMNSLKPEDTAVYYCSARVSSYGRYDYWGQGTQVTVSS”, which “polyreactivity (PSR sort gate)” value is on record?
A: high polyreactivity

Q: With “QVQLVESGGGLVQAGGSLRLSCAASGRIFPSNAMGWYRQAPGKERELVAAISVSGGSTYYADSVKGRFTISRDNAKNTVYLQMNSLKPEDTAVYYCAVRAWDPYTGKSDYWGQGTQVTVSS” as the sequence, how does the “polyreactivity (PSR sort gate)” value read?
A: low polyreactivity

Q: With “QVQLVASGGGLVQAGGSLRLSCAASGRNFRSYVMGWYRQAPGKERDLVATITRSGGGTTYADSVKGRFTISRDNAKNTVYLHMKSLKAEDTAVYYCNAERRYSWYSQGDYWGQGTQVTVSS” as the sequence, how does the “polyreactivity (PSR sort gate)” value read?
A: high polyreactivity

Q: Which “polyreactivity (PSR sort gate)” value does the source give for “QVQLLESGGGLVQAGGSLRLSCAASGFIFKGNAMGWYRQAPGKERELVAAITNRGGGTYYADSVKGRFTISRDNAKNTVYLLMNSLKPEDTAVYYCAKAYTLPFHPYDYWGQGTQVTVSS” here?
A: high polyreactivity

Q: For “QVQLVESGGGLVQAGGSLRLSCAASGSIFDGNTMGWSRPAPGKERELVATIRWRGGRTYYADSVKGRFTISRDNAKNTVSLQMNSLKPEDTAVYYCNARWGYSRHRLMGYWGQGTQVTVSS”, which “polyreactivity (PSR sort gate)” value is on record?
A: high polyreactivity

Q: Which “polyreactivity (PSR sort gate)” value does the source give for “QVQLVESGGGLVQAGGSLRLSCAASGGIFQGNVMGWYRQAPGKERELVASIRRGGSTNYADSVKGRFTISRDNAKNTVYLQMNSLKPEDTAVYYCSARKWVGYHVWPLREYNYWGQGTQVTVSS” here?
A: low polyreactivity

Q: For “QVQLVESGGGLVQAGGSLRLSCAASGSTRFWKDMGWYRQAPWKERELVAVISFSGVSTYYADSVKGRFTISRDNAKNTVYIQMNRLKPEDTAVYYCAIEDGYSQLKTTFDEPGYGSWGQGTQVNVSS”, which “polyreactivity (PSR sort gate)” value is on record?
A: low polyreactivity

Q: For “QVQLVESGGGLVQAGGSLRLSCAASGRTFGKYAMGWYRQAPGKERELVAAITGDGGSTYYADSVKGRFTISRDNAKNTVYLQMNSLKPEDTAVYYCNADPQRRNYDYWGQGTQVTVSS”, which “polyreactivity (PSR sort gate)” value is on record?
A: high polyreactivity

Q: With “QVQLVESGGGLVQAGGSLRLSCAASGFTFLGYDMGWYRQAPGKERELVAAIDYSGGSTYYADSVKGRFTISRDNAKNTVYLQMNSLKPEDTAVYYCAAEYQSGPYTWYEYWGQGTQVTVSS” as the sequence, how does the “polyreactivity (PSR sort gate)” value read?
A: high polyreactivity

Q: Which “polyreactivity (PSR sort gate)” value does the source give for “QVQLVESGGGLVQAGGSLRLSCAASGRTFYRYGMGWYRQAPGKEREFVAAITRSGDSTYADSVKGRFTISRDNAKITVYLQMNSLKPEDTAVYYCAKVFLRQYAYRYYYWGQGTQVTVSS” here?
A: high polyreactivity

Q: With “QVQLVESGGGLVQAGGSLRLSCAASGFTKAYAMGWSRQAPGKERELVAVISDRAGSTYYADSVKGRFTISRDNPKNTVYLQMNSLKPEDTAVYYCAADGIGYSYHGRPYIYEYWGQGTQVTVSS” as the sequence, how does the “polyreactivity (PSR sort gate)” value read?
A: low polyreactivity

Q: For “QVQLVESGGGLVQAGGSLRLSCAASGRTFQFYTMGWYRQAPGKERELVAVITVSSASTFYADSVKGRFTISRDNAKNTVYLQMNSLKPEDTAVYYCAAGLVLNVGMDSWGQGTQVTVSS”, which “polyreactivity (PSR sort gate)” value is on record?
A: low polyreactivity

Q: With “QVQLVESGGGLVQAGGSLRLSCAATGYIGGNAMGWYRQAPWKERELVATLSRSGGSTYYADSVKGRFTISRDNAKNTVYLQMNSLKPEDSAVYYCAAVSYGNYHWGMYYWGQGTQVTVSS” as the sequence, how does the “polyreactivity (PSR sort gate)” value read?
A: low polyreactivity

Q: Which “polyreactivity (PSR sort gate)” value does the source give for “QVQLEESGGGLVQAGGSLRLSCAASGRNFSVYAMGWYRPAPGKERELVARIRSGGSTYYADSVKGRFTISRDNAKNTVYLQMNSLKPEDTAVYYCAADGFASRWYAYYYWGQGTQVTVSS” here?
A: high polyreactivity

Q: For “QVQLVESGGGLVQAGGSLRLSCAASGRNISYNAMGWSRQAPGKERELVAAISWGGGSTYYADSVKGRFTISRDNAKNTVYLQMNSLKPEDTAVYYCAKGWYRIKRNDYWGQGTQVTVSS”, which “polyreactivity (PSR sort gate)” value is on record?
A: low polyreactivity

Q: With “QVQLVESGGGLVQAGGSLRLSCAGSGSIFSNNAMGWYRQAPGKERELVAAISASGGSTYYADSVKGRFTISRDNAKNTVYLQMNSLKPEDTAVYYCAARGYGWGQGTQVTVSS” as the sequence, how does the “polyreactivity (PSR sort gate)” value read?
A: high polyreactivity

Q: Which “polyreactivity (PSR sort gate)” value does the source give for “QVQLVESGGGLVQAGGSLRLTCAASGRTFRYYVMGWYRQAPGKERELVASITSDATYYADSVKGRFTISRDNAKNTVYLQLNSLKPEDTAVYYCAKRYPYRHRTYNPVAYDYWGQGTQVTVSS” here?
A: high polyreactivity

Q: Which “polyreactivity (PSR sort gate)” value does the source give for “QVQLVESGGGLVQAGGSLRLSCAASGRPFTWYALGWYRQAPGKEREVVAAISKSGGSTYYADSVKGRFTISRDNAKNTVYLQMNSLKPEDTAVYYCNADFYGYFLGYGYCGQGTQVTVSS” here?
A: low polyreactivity

Q: Which “polyreactivity (PSR sort gate)” value does the source give for “HVQLVESGGGLVQAGGSLRLSCAHSGIIFRTNAMGWYRQAPGKEREFVAAISAGATRKYYADSVKGRFTISRDTAKNTVYLQMNSLKPEDTAVYYCAAASGYDYWGQGTQVTVSS” here?
A: high polyreactivity

Q: For “QVQLVESGGGLVQAGGSLRLSCAASGSIFSGYAMGWYRQAPGKERELVAAINWTGDSTYYADSVKGRFTISRDNAKNTVYLQMNSLKPEDTAVYYCAAIRRQKGLWDYYYWGQGSQVTVSS”, which “polyreactivity (PSR sort gate)” value is on record?
A: low polyreactivity
